Test results from US20070286861A1, “Immunoglobulins” (published 2007).
Where two headings read alike, the source gives them in different places.

T1: human Oncostatin M (hOSM) (human)
T1 chain: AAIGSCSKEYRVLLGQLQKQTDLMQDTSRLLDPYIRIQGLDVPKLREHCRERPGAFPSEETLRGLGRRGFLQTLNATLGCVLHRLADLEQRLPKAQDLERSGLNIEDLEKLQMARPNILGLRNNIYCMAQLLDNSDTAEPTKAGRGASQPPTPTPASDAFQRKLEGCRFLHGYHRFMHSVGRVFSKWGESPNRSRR

T2: glycosylated human OSM produced in CHO cells (human)
T2 sequence (chain, glycosylated (CHO cell glycosylated)): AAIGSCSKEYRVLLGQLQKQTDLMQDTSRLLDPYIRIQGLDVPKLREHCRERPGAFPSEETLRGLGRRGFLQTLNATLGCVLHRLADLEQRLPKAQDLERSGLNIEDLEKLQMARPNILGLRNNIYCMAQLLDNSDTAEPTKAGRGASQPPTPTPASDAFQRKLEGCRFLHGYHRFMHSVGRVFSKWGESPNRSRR

T3: glycosylated human OSM produced in CHO cells (human, glycosylated (CHO cell glycosylated))
T3 chain: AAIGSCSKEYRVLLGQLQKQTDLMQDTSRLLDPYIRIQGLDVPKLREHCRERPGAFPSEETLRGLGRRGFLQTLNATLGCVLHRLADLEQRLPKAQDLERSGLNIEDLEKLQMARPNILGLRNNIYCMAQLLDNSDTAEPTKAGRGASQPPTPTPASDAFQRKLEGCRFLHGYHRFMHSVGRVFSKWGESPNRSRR

T4: cynomolgus monkey OSM (cOSM) (cynomolgus monkey)
T4 chain: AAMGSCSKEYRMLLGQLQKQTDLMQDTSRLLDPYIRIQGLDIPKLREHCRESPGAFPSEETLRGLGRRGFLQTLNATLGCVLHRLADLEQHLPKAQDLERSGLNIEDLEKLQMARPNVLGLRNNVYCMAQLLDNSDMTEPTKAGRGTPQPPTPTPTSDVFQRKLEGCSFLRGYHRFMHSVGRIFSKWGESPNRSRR


Key:
[1] = molecular target: T1, human Oncostatin M (hOSM)
[2] = molecular target: T2, glycosylated human OSM produced in CHO cells (human)
[3] = molecular target: T3, glycosylated human OSM produced in CHO …; assay: gp130 inhibition ELISA (Table 4; OSM taken as CHO produced hOSM of FIG. 17)
[4] = molecular target: T1, human Oncostatin M (hOSM); assay: gp130 inhibition ELISA (antibody pre-incubated with OSM; OSM bound to plate-coated gp130-Fc detected)
[5] = molecular target: T1, human Oncostatin M (hOSM); assay: gp130 inhibition ELISA
[6] = molecular target: T4, cynomolgus monkey OSM (cOSM); assay: gp130 inhibition ELISA
[7] = molecular target: T1, human Oncostatin M (hOSM); assay: gp130 ELISA
[8] = molecular target: T4, cynomolgus monkey OSM (cOSM); assay: gp130 ELISA
[9] = molecular target: T1, human Oncostatin M (hOSM)
[10] = molecular target: T4, cynomolgus monkey OSM (cOSM)
[11] = molecular target: T1, human Oncostatin M (hOSM); assay: gp130 inhibition ELISA, CHO supernatant; legend: NA: inhibition is less than 50%
[12] = molecular target: T4, cynomolgus monkey OSM (cOSM); assay: as above
[13] = molecular target: T1, human Oncostatin M (hOSM); assay: gp130 inhibition ELISA, CHO supernatant
[14] = molecular target: T4, cynomolgus monkey OSM (cOSM); assay: gp130 inhibition ELISA, CHO supernatant

Row | Binder | IL-6 release from KB cells (KB cell assay), IC50 [1] [µg/mL] | IL-6 release from KB cells (KB cell assay), IC50 [2] [µg/mL] | IC50 [3] [µg/mL] | IC50 [4] [µg/mL] | IC50 [14] [µg/mL] | further results
1 | 15E10 murine antibody (antibody, V domains shown) VH: QVQLKQSGPGLVQPSQSLSITCTVSGFSLTNYGVHWVRQSPGKGLEWLGVIWRGGSTDYNAAFMSRLSITKDNSRSQVFFKMNSLQADDTAIYYCAKSPNSNFYWYFDVWGTGTTVTVSS VL: QIVLTQSPTIMSASPGEKVTMTCSGSSSVSYMYWYQEKPGSSPRLLIEDTSNLASGVPARFSGSGSGTSYSLTISRMEAEDAATYYCQQWSSYPPTFGSGTKLEIK | 0.195 | 0.053 | 0.009 | 0.059 |  | 
2 | 15E10 chimaeric antibody (antibody, V domains shown) VH: QVQLKQSGPGLVQPSQSLSITCTVSGFSLTNYGVHWVRQSPGKGLEWLGVIWRGGSTDYNAAFMSRLSITKDNSRSQVFFKMNSLQADDTAIYYCAKSPNSNFYWYFDVWGTGTTVTVSS VL: QIVLTQSPTIMSASPGEKVTMTCSGSSSVSYMYWYQEKPGSSPRLLIEDTSNLASGVPARFSGSGSGTSYSLTISRMEAEDAATYYCQQWSSYPPTFGSGTKLEIK | 0.11 | 0.079 | 0.019 | 0.036 |  | IC50 [5]: 0.07 µg/mL; IC50 [6]: 0.06 µg/mL
3 | 10D3 murine antibody (antibody, V domains shown) VH: EVQLQQSGPELVKPGASVKISCKASGYIFTDYNMDWVKQSHGKKLEWIGDINPNNGGTIDNQKFKDKATLTVDKSSSTAYMELRSLTSEDTAVYYCARGIYYYGSHYFDYWGQGTTLTVSS VL: QIVLTQSPAIMSASPGEKVTMTCSATSSVSVMHWFQKKSGTSPKRWIYDTSKLASGVPTRFSGSGSGTSYSLTISSMEAEDTATYYCQQWSSNPLTFGSGTKLELK | 0.114 |  |  | 0.107 |  | 
4 | 10D3 chimaeric antibody (antibody, V domains shown) VH: EVQLQQSGPELVKPGASVKISCKASGYIFTDYNMDWVKQSHGKKLEWIGDINPNNGGTIDNQKFKDKATLTVDKSSSTAYMELRSLTSEDTAVYYCARGIYYYGSHYFDYWGQGTTLTVSS VL: QIVLTQSPAIMSASPGEKVTMTCSATSSVSVMHWFQKKSGTSPKRWIYDTSKLASGVPTRFSGSGSGTSYSLTISSMEAEDTATYYCQQWSSNPLTFGSGTKLELK | 0.107 |  |  | 0.057 |  | IC50 [7]: 0.032 µg/mL; IC50 [8]: 0.246 µg/mL
5 | humanised 15E10 antibody B3L2 (wild type Fc) (antibody, V domains shown) VH: QVQLVESGGGVVQPGRSLRLSCAASGFSLTNYGVHWVRQAPGKGLEWVAVIWRGGSTDYNAAFMSRFTISKDNSKNTLYLQMNSLRAEDTAVYYCAKSPNSNFYWYFDVWGRGTLVTVSS VL: EIVLTQSPATLSLSPGERATLSCSGSSSVSYMYWYQQKPGQAPRLLIEDTSNLASGIPARFSGSGSGTDYTLTISNLEPEDFAVYYCQQWSSYPPTFGQGTKLEIKR |  | 0.123 | 0.035 |  |  | 
6 | Humanised antibody 10D3 DLE (antibody, V domains shown) VH: EVQLVQSGAEVKKPGASVKVSCKASGYIFTDYNMDWVRQAPGQKLEWIGDINPNNGGTIDNQKFKDRATLTVDKSTSTVYMELSSLRSEDTAVYYCARGIYYYGSHYFDYWGQGTLVTVSS VL: EIVLTQSPSSLSASVGDRVTITCSATSSVSVMHWFQKKPGKAPKRWIYDTSKLASGVPSRFSGSGSGTDYTLTISSLQPEDFATYYCQQWSSNPLTFGGGTKVDIKR |  |  |  |  |  | IL-6 release from KB cells (KB cell assay), IC50 [9]: 0.205 µg/mL; IL-6 release from KB cells (KB cell assay), IC50 [10]: 0.07 µg/mL; IC50 [7]: 0.021 µg/mL; IC50 [8]: 0.059 µg/mL
7 | humanised 15E10 antibody B1L1 (antibody, V domains shown) VH: QVQLVESGGGVVQPGRSLRLSCAASGFSLTNYGVHWVRQAPGKGLEWVAVIWRGGSTDYNAAFMSRFTISRDNSKNTLYLQMNSLRAEDTAVYYCARSPNSNFYWYFDVWGRGTLV VL: EIVLTQSPATLSLSPGERATLSCSGSSSVSYMYWYQQKPGQAPRLLIYDTSNLASGIPARFSGSGSGTDFTLTISNLEPEDFAVYYCQQWSSYPPTFGQGTKLEIK |  |  |  |  |  | % inhibition [11]: < 50%; % inhibition [12]: < 50%
8 | humanised 15E10 antibody B1L2 (antibody, V domains shown) VH: QVQLVESGGGVVQPGRSLRLSCAASGFSLTNYGVHWVRQAPGKGLEWVAVIWRGGSTDYNAAFMSRFTISRDNSKNTLYLQMNSLRAEDTAVYYCARSPNSNFYWYFDVWGRGTLVTVSS VL: EIVLTQSPATLSLSPGERATLSCSGSSSVSYMYWYQQKPGQAPRLLIEDTSNLASGIPARFSGSGSGTDYTLTISNLEPEDFAVYYCQQWSSYPPTFGQGTKLEIK |  |  |  |  | 0.11 | IC50 [13]: 0.334 µg/mL
9 | humanised 15E10 antibody B4L1 (antibody, V domains shown) VH: QVQLVESGGGVVQPGRSLRLSCAASGFSLTNYGVHWVRQAPGKGLEWVAVIWRGGSTDYNAAFMSRLTISKDNSKNTLYLQMNSLRAEDTAVYYCAKSPNSNFYWYFDVWGRGTLVTVSS VL: EIVLTQSPATLSLSPGERATLSCSGSSSVSYMYWYQQKPGQAPRLLIYDTSNLASGIPARFSGSGSGTDFTLTISNLEPEDFAVYYCQQWSSYPPTFGQGTKLEIK |  |  |  |  | 0.167 | % inhibition [11]: < 50%
10 | humanised 15E10 antibody B4L2 (antibody, V domains shown) VH: QVQLVESGGGVVQPGRSLRLSCAASGFSLTNYGVHWVRQAPGKGLEWVAVIWRGGSTDYNAAFMSRLTISKDNSKNTLYLQMNSLRAEDTAVYYCAKSPNSNFYWYFDVWGRGTLVTVSS VL: EIVLTQSPATLSLSPGERATLSCSGSSSVSYMYWYQQKPGQAPRLLIEDTSNLASGIPARFSGSGSGTDYTLTISNLEPEDFAVYYCQQWSSYPPTFGQGTKLEIKR |  |  |  |  | 0.04 | IC50 [13]: 0.048 µg/mL
